Assay results: article PMC13123425, “A mutant complement factor H (W1183R) enhances proteolytic cleavage of von Willebrand factor by ADAMTS-13 under shear” (Journal of thrombosis and haemostasis : JTH, 2025)

Target: purified human recombinant von Willebrand factor (multimeric) (human, UniProt P04275 764-2813)
Test: cell-based or functional assay

B1: human recombinant W1183R complement factor H (natural protein, UniProt P08603 19-1231, looked up)
chain: EDCNELPPRRNTEILTGSWSDQTYPEGTQAIYKCRPGYRSLGNVIMVCRKGEWVALNPLRKCQKRPCGHPGDTPFGTFTLTGGNVFEYGVKAVYTCNEGYQLLGEINYRECDTDGWTNDIPICEVVKCLPVTAPENGKIVSSAMEPDREYHFGQAVRFVCNSGYKIEGDEEMHCSDDGFWSKEKPKCVEISCKSPDVINGSPISQKIIYKENERFQYKCNMGYEYSERGDAVCTESGWRPLPSCEEKSCDNPYIPNGDYSPLRIKHRTGDEITYQCRNGFYPATRGNTAKCTSTGWIPAPRCTLKPCDYPDIKHGGLYHENMRRPYFPVAVGKYYSYYCDEHFETPSGSYWDHIHCTQDGWSPAVPCLRKCYFPYLENGYNQNYGRKFVQGKSIDVACHPGYALPKAQTTVTCMENGWSPTPRCIRVKTCSKSSIDIENGFISESQYTYALKEKAKYQCKLGYVTADGETSGSITCGKDGWSAQPTCIKSCDIPVFMNARTKNDFTWFKLNDTLDYECHDGYESNTGSTTGSIVCGYNGWSDLPICYERECELPKIDVHLVPDRKKDQYKVGEVLKFSCKPGFTIVGPNSVQCYHFGLSPDLPICKEQVQSCGPPPELLNGNVKEKTKEEYGHSEVVEYYCNPRFLMKGPNKIQCVDGEWTTLPVCIVEESTCGDIPELEHGWAQLSSPPYYYGDSVEFNCSESFTMIGHRSITCIHGVWTQLPQCVAIDKLKKCKSSNLIILEEHLKNKKEFDHNSNIRYRCRGKEGWIHTVCINGRWDPEVNCSMAQIQLCPPPPQIPNSHNMTTTLNYRDGEKVSVLCQENYLIQEGEEITCKDGRWQSIPLCVEKIPCSQPPQIEHGTINSSRSSQESYAHGTKLSYTCEGGFRISEENETTCYMGKWSSPPQCEGLPCKSPPEISHGVVAHMSDSYQYGEEVTYKCFEGFGIDGPAIAKCLGEKWSHPPSCIKTDCLSLPSFENAIPMGEKKDVYKAGEQVTYTCATYYKMDGASNVTCINSRWTGRPTCRDTSCVNPPTVQNAYIVSRQMSKYPSGERVRYQCRSPYEMFGDEEVMCLNGNWTEPPQCKDSTGKCGPPPPIDNGDITSFPLSVYAPASSVEYQCQNLYQLEGNKRITCRNGQWSEPPKCLHPCVISREIMENYNIALRRTAKQKLYSRTGESVEFVCKRGYRLSSRSHTLRTTCWDGKLEYPTCAKR
cleavage product (~350 kD band) of multimeric VWF by recombinant ADAMTS-13 under vortexing-induced shear, with 0–2 μM W1183R-CFH: ~2 fold
